± gives the uncertainty stated by the source.
Assay: self-splicing fitness, log relative to wild type (ln ratio); higher = more splicing; Tetrahymena group I intron in knt gene, E. coli kanamycin selection, DiMSum; sequences stand for … in CUCUCU…GGAGGGAAAAGUUAUCAGGCAUGCACCUGGUAGCUAGUCUUUAAACCAAUAGAUUGCAUCGGUUUAAAAGGCAAGACCGUCAAAUUGCGGGAAAGGGGUCAACAGCCGUUCAGUACCAAGUCUCAGGGGAAACUUUGAGAUGGCCUUGCAAAGGGUAUGGUAAUAAGCUGACGGACAUGGUCCUAACCACGCAGCCAAGUCCUAAGUCAACAGAUCUUCUGUUGAUAUGGAUGCAGUUCACAGACUAAAUGUCGGUCGGGGAAGAUGUAUUCUUCUCAUAAGAUAUAGUCGGACCUCUCCUUAAUGGGAGCUAGCGGAUGAAGUGAUGCAACACUGGAGCCGCUGGGAACUAAUUUGUAUGCGAAAGUAUAUUGAUUAGUUUUGGAGUACUCGUGGUCG
Procedure, shortened: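 The eight P1ex-region nucleotides of an intron in the knt kanamycin-resistance gene on pET-22b(+) were all randomised and the library put into E. coli BL21(DE3). Six replicate transformations were grown overnight at 37°C or 30°C on LB agar with or without 25 μg/mL kanamycin, together with 100 μg/mL carbenicillin, 50 μM IPTG and 0.2% rhamnose. Colonies were pooled and amplicon-sequenced on an Illumina HiSeq 2500. Fitness from DiMSum is the error-weighted combination of wild-type-normalised replicate fold changes, kanamycin over none.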

Row | Sequence | self-splicing fitness (ln) (30 °C) | self-splicing fitness (ln) (37 °C)
1 | UCCGAGCAAUAUUACGAAAC | -2.59 ± 0.27 | -1.62 ± 0.28
2 | GCAAAGCAAUAUUACGAGAA | -3 ± 0.2 | -1.66 ± 0.18
3 | CAAGAGCAAUAUUACGCUUU | -3.3 ± 0.19 | -2.58 ± 0.18
4 | GCAGAGCAAUAUUACGGAGA | – | -2.09 ± 0.43
5 | GCGCAGCAAUAUUACGACCU | 0.0686 ± 0.071 | 0.0313 ± 0.084
6 | AGAUAGCAAUAUUACGUAGC | -2.88 ± 0.22 | -2.16 ± 0.24
7 | GUGAAGCAAUAUUACGAGUA | -1.84 ± 0.13 | -1.47 ± 0.16
8 | AACGAGCAAUAUUACGAAUG | -4.03 ± 0.28 | -3.18 ± 0.25
9 | GGGUAGCAAUAUUACGAGAU | -2.43 ± 0.19 | -1.59 ± 0.21
10 | UCUUAGCAAUAUUACGUUGU | -3.61 ± 0.19 | -1.24 ± 0.14
11 | AUAGAGCAAUAUUACGUAUA | -2.1 ± 0.19 | -0.371 ± 0.21
12 | UCAGAGCAAUAUUACGUGGA | -2.49 ± 0.17 | -0.107 ± 0.12
13 | UCGUAGCAAUAUUACGGGCU | – | -2.41 ± 0.49
14 | UACCAGCAAUAUUACGGCAG | -0.582 ± 0.081 | 0.685 ± 0.1
15 | UUUCAGCAAUAUUACGGCUU | -1.39 ± 0.13 | -0.047 ± 0.13
16 | AACCAGCAAUAUUACGCCGU | -1.03 ± 0.079 | 0.182 ± 0.1
17 | CUCAAGCAAUAUUACGGUCA | -3.19 ± 0.2 | -2.35 ± 0.2
18 | CCCAAGCAAUAUUACGGGUU | -2.98 ± 0.12 | -2.9 ± 0.2
19 | CGUUAGCAAUAUUACGUCCU | -1.24 ± 0.1 | -0.9 ± 0.15
20 | CCCGAGCAAUAUUACGGGAA | -4.33 ± 0.29 | -2.39 ± 0.14
21 | CUCUAGCAAUAUUACGGAUA | -3.57 ± 0.24 | -2.71 ± 0.22
22 | UAAGAGCAAUAUUACGCAAU | -3.35 ± 0.31 | -2.32 ± 0.27
23 | ACGCAGCAAUAUUACGACGG | -0.871 ± 0.051 | -0.191 ± 0.073
24 | CCAUAGCAAUAUUACGAUAU | -3.76 ± 0.2 | -2.97 ± 0.19
25 | UACUAGCAAUAUUACGUGUA | -3.12 ± 0.28 | -0.943 ± 0.14

Row | Sequence | self-splicing fitness (ln) (30 °C) | self-splicing fitness (ln) (37 °C)
26 | UACUAGCAAUAUUACGAAUA | -1.51 ± 0.18 | -0.474 ± 0.13
27 | AUAGAGCAAUAUUACGUUAU | -0.975 ± 0.089 | -0.177 ± 0.11
28 | UGGAAGCAAUAUUACGAUUU | -2.48 ± 0.087 | -1.7 ± 0.092
29 | AAAUAGCAAUAUUACGGAUC | -1.18 ± 0.11 | -0.569 ± 0.15
30 | AAUGAGCAAUAUUACGGGAA | -2.61 ± 0.26 | -3.04 ± 0.33
31 | CGUCAGCAAUAUUACGGAUG | -3.63 ± 0.2 | -1.74 ± 0.14
32 | CACAAGCAAUAUUACGAACA | -2.61 ± 0.18 | -1.72 ± 0.12
33 | CCAAAGCAAUAUUACGAUUG | -1.36 ± 0.06 | -0.695 ± 0.081
34 | UCUAAGCAAUAUUACGGUUC | -3.4 ± 0.19 | -2.39 ± 0.2
35 | CCAAAGCAAUAUUACGCAUU | -3.34 ± 0.26 | -3.55 ± 0.46
36 | GAUAAGCAAUAUUACGACGG | -2.96 ± 0.17 | -2.34 ± 0.27
37 | UCGAAGCAAUAUUACGUUCG | -1.54 ± 0.12 | -0.659 ± 0.19
38 | UCUUAGCAAUAUUACGUAUA | – | -3.28 ± 0.3
39 | AAGGAGCAAUAUUACGGCGC | -2 ± 0.27 | -2.34 ± 0.48
40 | UAACAGCAAUAUUACGUCAA | -2.17 ± 0.15 | -0.769 ± 0.1
41 | AUUUAGCAAUAUUACGAAAA | -1.99 ± 0.26 | -1.01 ± 0.23
42 | UGUUAGCAAUAUUACGUUGC | -2.88 ± 0.24 | -1.62 ± 0.26
43 | AAAUAGCAAUAUUACGUUUG | -2.04 ± 0.1 | -1.49 ± 0.11
44 | CCCCAGCAAUAUUACGCUAU | -3.43 ± 0.15 | -1.9 ± 0.13
45 | CGUUAGCAAUAUUACGGCAG | -0.122 ± 0.1 | 0.3 ± 0.12
46 | ACACAGCAAUAUUACGUGGA | -2.25 ± 0.096 | -1.18 ± 0.066
47 | CAAGAGCAAUAUUACGCGUC | -2.16 ± 0.17 | -2.23 ± 0.23
48 | GCUCAGCAAUAUUACGAGAG | -1.03 ± 0.14 | -0.875 ± 0.14
49 | AGCUAGCAAUAUUACGAACC | -0.602 ± 0.14 | -0.082 ± 0.14
50 | GACAAGCAAUAUUACGGCCU | -0.429 ± 0.082 | -0.314 ± 0.1

Row | Sequence | self-splicing fitness (ln) (30 °C) | self-splicing fitness (ln) (37 °C)
51 | CAGAAGCAAUAUUACGCAGU | -2.53 ± 0.19 | -3.48 ± 0.23
52 | GUAAAGCAAUAUUACGUCGC | -1.35 ± 0.11 | -0.63 ± 0.13
53 | GAACAGCAAUAUUACGCGGG | -1.87 ± 0.1 | -1.37 ± 0.11
54 | GUACAGCAAUAUUACGUUGC | -3.96 ± 0.13 | -3.05 ± 0.14
55 | GCGUAGCAAUAUUACGUCUU | -3.15 ± 0.098 | -1.93 ± 0.1
56 | AGAUAGCAAUAUUACGAUGC | -2.02 ± 0.15 | -0.736 ± 0.16
57 | CCAUAGCAAUAUUACGUACA | -3.14 ± 0.21 | -1.96 ± 0.21
58 | CAUAAGCAAUAUUACGUGCC | -3.1 ± 0.21 | -2.66 ± 0.38
59 | ACGUAGCAAUAUUACGUAGA | -3.58 ± 0.42 | -2.86 ± 0.41
60 | GGUAAGCAAUAUUACGACAA | -0.393 ± 0.1 | -0.112 ± 0.16
61 | GAACAGCAAUAUUACGAACA | -0.908 ± 0.1 | -0.166 ± 0.12
62 | AGGGAGCAAUAUUACGCAUA | -2.22 ± 0.2 | -2.63 ± 0.33
63 | AAAUAGCAAUAUUACGGCAA | -0.542 ± 0.071 | 0.146 ± 0.075
64 | UGUAAGCAAUAUUACGAGCC | -1.57 ± 0.35 | -0.838 ± 0.43
65 | GUAUAGCAAUAUUACGAGGU | -2.99 ± 0.26 | -0.619 ± 0.28
66 | UGAAAGCAAUAUUACGUUCC | -1.36 ± 0.11 | -0.98 ± 0.13
67 | CAGGAGCAAUAUUACGAACG | -0.795 ± 0.11 | -0.844 ± 0.13
68 | UACUAGCAAUAUUACGCAUU | -3.73 ± 0.21 | -1.81 ± 0.14
69 | GUGCAGCAAUAUUACGCGAA | -1.62 ± 0.1 | -0.106 ± 0.085
70 | CUGCAGCAAUAUUACGGACA | – | -1.44 ± 0.28
71 | AUCUAGCAAUAUUACGGAAG | -1.99 ± 0.12 | -0.947 ± 0.15
72 | GGAUAGCAAUAUUACGACGA | -1.43 ± 0.12 | -0.57 ± 0.1
73 | CGUCAGCAAUAUUACGCACU | -0.336 ± 0.071 | 0.339 ± 0.079
74 | CAUUAGCAAUAUUACGUUUG | -2.16 ± 0.1 | -1.51 ± 0.13
75 | GGCAAGCAAUAUUACGGUAC | -0.729 ± 0.072 | -0.752 ± 0.09

Row | Sequence | self-splicing fitness (ln) (30 °C) | self-splicing fitness (ln) (37 °C)
76 | GAGGAGCAAUAUUACGGUGG | -2.76 ± 0.2 | –
77 | AUGGAGCAAUAUUACGAAAG | -2.94 ± 0.24 | -2.11 ± 0.32
78 | UUGUAGCAAUAUUACGCAAG | -1.29 ± 0.17 | -0.849 ± 0.2
79 | AGGUAGCAAUAUUACGGCUG | -1.13 ± 0.016 | -1 ± 0.037
80 | AUGUAGCAAUAUUACGUCGC | – | -2.35 ± 0.46
81 | UCCUAGCAAUAUUACGUCAU | -3.25 ± 0.13 | -3.37 ± 0.23
82 | GUCUAGCAAUAUUACGAAUA | -1.87 ± 0.17 | -0.494 ± 0.14
83 | GCCGAGCAAUAUUACGGGUC | -3.68 ± 0.16 | -2.77 ± 0.11
84 | GCAGAGCAAUAUUACGGUUG | -3.01 ± 0.34 | -2.87 ± 0.47
85 | UGCAAGCAAUAUUACGGCUC | -1.8 ± 0.11 | -1.01 ± 0.15
86 | UGGUAGCAAUAUUACGUUAG | -1.9 ± 0.067 | -0.599 ± 0.072
87 | CCCUAGCAAUAUUACGACUU | -3.27 ± 0.23 | -2.7 ± 0.29
88 | CGGUAGCAAUAUUACGCACA | -0.755 ± 0.26 | -0.0778 ± 0.19
89 | GGUUAGCAAUAUUACGUUAC | -2.81 ± 0.19 | -1.47 ± 0.23
90 | UUCGAGCAAUAUUACGAGCU | -3.65 ± 0.43 | -2.44 ± 0.45
91 | CAACAGCAAUAUUACGCGAU | -5.11 ± 0.45 | -2.63 ± 0.23
92 | CGUAAGCAAUAUUACGGGGG | -2.61 ± 0.14 | -2.69 ± 0.19
93 | GAGCAGCAAUAUUACGCUAC | – | -1.95 ± 0.33
94 | CCCCAGCAAUAUUACGCAGU | -3.25 ± 0.12 | -2.71 ± 0.15
95 | CCCGAGCAAUAUUACGGCUU | -3.29 ± 0.17 | -2.71 ± 0.2
96 | UGUGAGCAAUAUUACGAUUG | -2.19 ± 0.26 | -0.226 ± 0.26
97 | GGAGAGCAAUAUUACGAGCG | – | -1.86 ± 0.37

Reference: the supplement of paper PMC7877785
